Reference: patent US9598677B2, “Use of human biliverdin reductase and fragments thereof for the treatment of protein kinase C-delta and ERK related conditions” (University of Rochester, priority 2009, dated 2017)
Ends that are not written are not given here. * marks the point of attachment. Myristoyl = CCCCCCCCCCCCCC(=O)*

Assays:
[1] = molecular target: T1, PKC-ζ (Homo sapiens, UniProt Q05513); experiment: PKC-ζ kinase assay in vitro; assay type: biochemical; conditions: MBP substrate, higher concentrations required than for PKC-δ, FIG. 5D
T1 construct: purchased Millipore
T1 sequence (Q05513 1-592): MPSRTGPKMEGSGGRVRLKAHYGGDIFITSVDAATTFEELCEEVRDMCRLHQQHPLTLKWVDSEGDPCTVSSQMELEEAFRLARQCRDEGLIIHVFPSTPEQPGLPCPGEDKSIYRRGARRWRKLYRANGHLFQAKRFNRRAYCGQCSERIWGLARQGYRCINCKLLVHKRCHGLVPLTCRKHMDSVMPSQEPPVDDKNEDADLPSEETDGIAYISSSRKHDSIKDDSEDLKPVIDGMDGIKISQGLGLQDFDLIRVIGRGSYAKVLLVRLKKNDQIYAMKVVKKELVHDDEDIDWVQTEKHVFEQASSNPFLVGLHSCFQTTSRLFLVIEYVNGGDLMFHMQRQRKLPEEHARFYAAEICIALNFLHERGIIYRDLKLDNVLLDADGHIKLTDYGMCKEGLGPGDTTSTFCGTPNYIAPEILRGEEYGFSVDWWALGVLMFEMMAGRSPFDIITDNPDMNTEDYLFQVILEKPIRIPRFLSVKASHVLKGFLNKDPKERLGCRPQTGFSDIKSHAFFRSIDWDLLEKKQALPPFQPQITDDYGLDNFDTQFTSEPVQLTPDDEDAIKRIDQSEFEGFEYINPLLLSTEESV
Protocol: (§1) Measurement of PKC-β and PKC-ζ activities. Recombinant PKC-βII (Calbiochem) was assayed in vitro in 20 mM HEPES pH 7.2, 15 mM MgCl2, 0.2 mM CaCl2, 1 mM DTT, 25 mM β-glycerophosphate, 50 μg/ml phosphatidylserine and 5 μg/ml diacylglycerol, using 12.5 μM MBP as substrate, using 5 ng of enzyme per 50 μl reaction. 100 μM ATP (containing [γ^32P]-ATP (as above) was used to start the reaction, and incorporation was determined using p81 filter binding (Maines et al., “Human Biliverdin Reductase: A Previously Unknown Activator of Protein Kinase C-βII,” J. Biol. Chem. 282:8110-8122 (2007), which is hereby incorporated by reference in its entirety). Similarly, recombinant PKC-ζ(Millipore) was assayed in 20 mM MOPS pH 7.2, 15 mM MgCl2, 0.2 mM EDTA, with 12.5 μM MBP as substrate, again using 5 ng of enzyme per 50 μl reaction (Lerner-Marmarosh et al., “Regulation of TNF-alpha-Activated PKC-zeta Signaling By the Human Biliverdin Reductase: Identification of Activating and Inhibitory Domains of the Reductase,” FASEB J. 21:3949-3962 (2007), which is hereby incorporated by reference in its entirety). Otherwise, reaction conditions were as for PKC-βII.

[2] = molecular target: T2, PKC-βII (Homo sapiens, UniProt P05771); experiment: PKC-βII kinase assay in vitro; assay type: biochemical; conditions: MBP substrate, concentrations that markedly inhibited PKC-δ, FIG. 5D
T2 construct: purchased Calbiochem
T2 sequence (P05771 1-673 isoform P05771-2): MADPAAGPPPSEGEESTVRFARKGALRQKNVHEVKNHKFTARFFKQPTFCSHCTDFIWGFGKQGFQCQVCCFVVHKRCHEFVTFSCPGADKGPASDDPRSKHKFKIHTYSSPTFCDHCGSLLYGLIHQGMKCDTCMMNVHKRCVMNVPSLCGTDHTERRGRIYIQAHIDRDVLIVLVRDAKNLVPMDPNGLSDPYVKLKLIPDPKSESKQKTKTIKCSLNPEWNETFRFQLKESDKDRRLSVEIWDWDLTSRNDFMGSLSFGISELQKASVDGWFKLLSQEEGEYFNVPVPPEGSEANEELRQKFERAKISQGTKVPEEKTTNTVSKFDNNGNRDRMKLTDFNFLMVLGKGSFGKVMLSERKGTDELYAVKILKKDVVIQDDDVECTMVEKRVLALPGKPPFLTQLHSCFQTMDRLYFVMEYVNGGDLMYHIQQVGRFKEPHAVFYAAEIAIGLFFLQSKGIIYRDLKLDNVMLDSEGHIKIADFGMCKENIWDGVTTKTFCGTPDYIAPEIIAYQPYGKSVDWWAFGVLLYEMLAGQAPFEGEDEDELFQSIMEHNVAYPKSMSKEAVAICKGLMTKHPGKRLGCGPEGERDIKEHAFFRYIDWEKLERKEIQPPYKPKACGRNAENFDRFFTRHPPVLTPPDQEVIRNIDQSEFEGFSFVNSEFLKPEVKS
Protocol: as §1

[3] = molecular target: PKC-δ (Homo sapiens, UniProt Q05655); experiment: PKC-δ activity assay in situ in 293A cells; assay type: cell-based; parameters: The human PKC-δ open reading frame was also cloned in the same vectors; expressed in transfected cells; host or cells: HEK 293A; conditions: myristoylated peptide, last 2 h of starvation, FIG. 5B
Sequence of PKC-δ (Q05655 whole entry): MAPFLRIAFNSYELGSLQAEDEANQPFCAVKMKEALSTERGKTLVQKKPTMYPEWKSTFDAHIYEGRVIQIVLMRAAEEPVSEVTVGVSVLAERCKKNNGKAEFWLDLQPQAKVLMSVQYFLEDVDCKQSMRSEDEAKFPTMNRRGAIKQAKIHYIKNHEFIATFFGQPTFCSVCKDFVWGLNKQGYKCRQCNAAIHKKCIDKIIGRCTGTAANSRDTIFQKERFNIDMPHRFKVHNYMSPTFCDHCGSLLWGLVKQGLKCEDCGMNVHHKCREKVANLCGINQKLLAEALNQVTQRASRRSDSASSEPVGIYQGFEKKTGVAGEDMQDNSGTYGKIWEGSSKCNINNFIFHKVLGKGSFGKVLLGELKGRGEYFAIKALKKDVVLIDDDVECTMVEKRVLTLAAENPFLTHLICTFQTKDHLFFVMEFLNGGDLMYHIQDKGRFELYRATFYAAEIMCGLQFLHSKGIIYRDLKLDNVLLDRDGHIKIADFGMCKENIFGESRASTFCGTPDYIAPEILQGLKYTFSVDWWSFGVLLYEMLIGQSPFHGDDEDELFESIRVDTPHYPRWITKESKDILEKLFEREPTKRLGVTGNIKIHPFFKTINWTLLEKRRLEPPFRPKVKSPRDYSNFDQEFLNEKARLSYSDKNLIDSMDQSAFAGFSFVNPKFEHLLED
Protocol: The PKC-δ activity assay in situ was performed by a modification of procedures detailed by Williams and Schrier (Williams et al., Glucose-Induced Protein Kinase C Activity Regulates Arachidonic Acid Release and Eicosanoid Production by Cultured Glomerular Mesangial Cells,” J. Clin. Invest. 92:2889-2896 (1993), which is hereby incorporated by reference in its entirety). Cells were seeded into 48-well plates and transfected with 0.1 μg/well pcDNA3-hBVR. After 24 h, the medium was replaced with a starvation medium (0.1% serum) and incubation continued for another 24 h to synchronize cells. In some wells, PKC inhibitor Rottlerin (20 μM) was added 30 min before addition of PMA (100 nM) for 15 min. In some wells, hBVR-derived peptides were introduced to cells in their myristoylated form. Cells were washed with medium and incubated for 10 min at 30° C. in 50 μl of kinase assay buffer (137 mM NaCl, 5.4 mM KCl, 10 mM MgCl2, 0.3 mM Na2HPO4, 0.4 mM KH2PO4, 25 mM β-glycerophosphate, 5.5 mM D-glucose, 5 mM EGTA, 1 mM CaCl2, 20 mM HEPES (pH 7.2), 50 μg/ml digitonin, 120 μg/ml of PKC-δ specific substrate (ARRKRKGSFFGG; SEQ ID NO: 52) and 100 μM ATP labeled with 10 μCi/ml [γ-^32P]-ATP). The reaction was stopped with the addition of 25 μl of ice-cold 30% (wt/vol) TCA. The TCA-soluble fraction samples were transferred to p81 phospho-cellulose filters. […]

effect of inhibitory peptide on PKC-ζ activity [1]: responsive
effect of inhibitory peptide on PKC-βII activity [2]: essentially unaffected
PKC-δ activity in cells transfected with pcDNA-PKC-δ and stimulated with PMA [3]: inhibitory activity
Sequence: KRNRYLSF (Myristoyl-KRNRYLSF)
